Test results: patent publication US20240226230A1 (MAYO FOUNDATION FOR MEDICAL EDUCATION AND RESEARCH, published 2024)

Columns and labels:
Nup62-mCherry = target: T1, Nup62-mCherry (UniProt P37198 1-522); assay: co-localisation by fluorescence microscopy of co-transfected cells
T1 construct: mCherry replaced GFP in pNup62-EGFP3; also called mCherry-tagged Nup62; not shown: mCherry tag
T1 sequence: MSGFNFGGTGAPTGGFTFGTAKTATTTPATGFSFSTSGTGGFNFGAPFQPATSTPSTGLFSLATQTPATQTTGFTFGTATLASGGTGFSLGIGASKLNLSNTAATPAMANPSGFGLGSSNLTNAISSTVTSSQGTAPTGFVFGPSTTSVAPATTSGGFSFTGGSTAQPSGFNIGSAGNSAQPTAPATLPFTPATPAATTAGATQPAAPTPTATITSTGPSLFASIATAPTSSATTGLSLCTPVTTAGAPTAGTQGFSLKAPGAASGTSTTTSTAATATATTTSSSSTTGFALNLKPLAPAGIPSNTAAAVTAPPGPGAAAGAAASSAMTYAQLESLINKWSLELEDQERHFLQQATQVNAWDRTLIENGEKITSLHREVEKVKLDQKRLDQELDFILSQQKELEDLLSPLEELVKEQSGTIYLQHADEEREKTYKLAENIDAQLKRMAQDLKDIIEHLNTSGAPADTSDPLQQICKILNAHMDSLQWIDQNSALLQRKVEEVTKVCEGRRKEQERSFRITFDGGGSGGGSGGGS

GFP-Nup98 = target: T2, GFP-Nup98 (UniProt P52948 1-880); assay: co-localisation by immunofluorescence in HEK293T cells (FIG. 35)
T2 construct: Bought plasmid; not shown: GFP tag
T2 sequence (looked up): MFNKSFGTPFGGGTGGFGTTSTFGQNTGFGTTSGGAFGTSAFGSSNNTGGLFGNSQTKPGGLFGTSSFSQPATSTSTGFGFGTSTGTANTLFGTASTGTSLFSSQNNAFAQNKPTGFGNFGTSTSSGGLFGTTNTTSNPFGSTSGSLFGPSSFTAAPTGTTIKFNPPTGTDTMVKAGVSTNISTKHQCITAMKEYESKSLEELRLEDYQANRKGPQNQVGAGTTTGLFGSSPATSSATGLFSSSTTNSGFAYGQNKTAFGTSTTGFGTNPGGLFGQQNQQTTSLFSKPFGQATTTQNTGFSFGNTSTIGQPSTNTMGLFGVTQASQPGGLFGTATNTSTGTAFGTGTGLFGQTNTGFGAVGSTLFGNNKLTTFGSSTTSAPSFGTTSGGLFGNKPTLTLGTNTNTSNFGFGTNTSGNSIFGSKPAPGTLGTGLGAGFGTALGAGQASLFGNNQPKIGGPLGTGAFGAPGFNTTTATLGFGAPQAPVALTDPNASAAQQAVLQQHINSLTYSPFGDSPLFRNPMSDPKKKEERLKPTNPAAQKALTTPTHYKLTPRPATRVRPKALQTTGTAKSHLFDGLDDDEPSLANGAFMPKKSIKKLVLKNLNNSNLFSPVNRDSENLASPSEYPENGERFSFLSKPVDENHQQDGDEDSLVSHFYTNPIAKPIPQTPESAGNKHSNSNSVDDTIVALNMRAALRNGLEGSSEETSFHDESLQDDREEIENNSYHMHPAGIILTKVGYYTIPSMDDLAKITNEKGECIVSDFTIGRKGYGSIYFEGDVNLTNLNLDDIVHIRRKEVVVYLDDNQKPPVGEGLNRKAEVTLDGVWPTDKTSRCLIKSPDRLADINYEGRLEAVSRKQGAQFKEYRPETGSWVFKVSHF
From the text: FIG. 35: Nup98 strongly associates with TDP-CTF^WT, but not TDP-CTF^VLIM-F and sTDP. […] Arrowheads point to co-aggregation. Hoechst staining was used to outline nuclei. Scale bar: 5 μm.

| Binder | binding result (Nup62-mCherry) | binding result (GFP-Nup98) |
| --- | --- | --- |
| GFP-TDP-43^mNLS 1-265 (other, human, not shown: GFP/EGFP tag (pEGFP-C1, Clontech)) GGGSGGGSGGGSMSEYIRVTEDENDEPIEIPSEDDGTVLLSTVTAQFPGACGLRYRNPVSQCMRGVRLVEGILHAPDAGWGNLVYVVNYPKDNAAAMDETDASSAVAVAAAVQKTSDLIVLGLPWKTTEQDLKEYFSTFGEVLMVQVKKDLKTGHSKGFGFVRFTEYETQVKVMSQRHMIDGRWCDCKLPNSKQSQDEPLRSRKVFVGRCTEDMTEDELREFFSQYGDVMDVFIPKPFRAFAFVTFADDQIAQSLCGEDLIIKGISVHISNAEPKHN | no binding | – |
| mCherry-TDP-CTF^VLIM-F (other, also called mCherry-tagged TDP-CTF^VLIM-F; not shown: mCherry tag (mCherry-C1, Clontech)) GGGSGGGSGGGSREFFSQYGDVMDVFIPKPFRAFAFVTFADDQIAQSLCGEDLIIKGISVHISNAEPKHNSNRQFERSGRFGGNPGGFGNQGGFGNSRGGGAGFGNNQGSNFGGGFNFGAFSFNPAMMAAAQAALQSSWGMMGMLASQQNQSGPSGNNQNQGNFQREPNQAFGSGNNSYSGSNSGAAFGWGSASNAGSGSGFNGGFGSSFDSKSSGWF | – | no binding |
